Experimental data as given in PMC7367176, “Grønning Alexander Gulliver Bjørnholt Department of Biochemistry and Molecular Biology, University of Southern Denmark, 5230 Odense M, Denmark”.

Assays:
[1] = target: T1, SRSF1 (UniProt Q07955 1-248); assay: SPR imaging; SPRi (IBIS MX-96): 10 mM HEPES/KOH pH 7.9, 150 mM KCl, 10 mM MgCl2, 0.075% Tween-80; 6.25-400 nM protein over immobilized biotinylated RNA; 20 mg/ml BSA block; settings: protein: recombinant; label: 3' biotin
[2] = target: T2, hnRNP A1 (UniProt P09651 1-372); assay: SPR imaging; 1:2 biphasic fit, primary Kd; SPRi (IBIS MX-96): 10 mM HEPES/KOH pH 7.9, 150 mM KCl, 10 mM MgCl2, 0.075% Tween-80; 6.25-400 nM protein over immobilized biotinylated RNA; 20 mg/ml BSA block; settings: protein: commercial; label: 3' biotin
[3] = target: T2, hnRNP A1; assay: SPR imaging; 1:2 biphasic fit, primary Kd; fitted maximum higher than WT (60.5 vs 49.6); SPRi (IBIS MX-96): 10 mM HEPES/KOH pH 7.9, 150 mM KCl, 10 mM MgCl2, 0.075% Tween-80; 6.25-400 nM protein over immobilized biotinylated RNA; 20 mg/ml BSA block; settings: protein: commercial; label: 3' biotin
[4] = target: T2, hnRNP A1; assay: SPR imaging; 1:2 biphasic fit, primary Kd; fitted maximum higher than SMN1 (1260 vs 885); SPRi (IBIS MX-96): 10 mM HEPES/KOH pH 7.9, 150 mM KCl, 10 mM MgCl2, 0.075% Tween-80; 6.25-400 nM protein over immobilized biotinylated RNA; 20 mg/ml BSA block; settings: protein: commercial; label: 3' biotin
[5] = target: T2, hnRNP A1; assay: SPR imaging; 1:2 biphasic fit, primary Kd; text: increased binding vs WT (maximum 718 vs 131); SPRi (IBIS MX-96): 10 mM HEPES/KOH pH 7.9, 150 mM KCl, 10 mM MgCl2, 0.075% Tween-80; 6.25-400 nM protein over immobilized biotinylated RNA; 20 mg/ml BSA block; settings: protein: commercial; label: 3' biotin
[6] = target: T1, SRSF1; assay: SPR imaging; Kd NA, Rmax 0, maximum 0; SPRi (IBIS MX-96): 10 mM HEPES/KOH pH 7.9, 150 mM KCl, 10 mM MgCl2, 0.075% Tween-80; 6.25-400 nM protein over immobilized biotinylated RNA; 20 mg/ml BSA block; settings: protein: recombinant; label: 3' biotin
[7] = target: T2, hnRNP A1; assay: SPR imaging; 1:2 biphasic fit, primary Kd; low Rmax 58.75; SPRi (IBIS MX-96): 10 mM HEPES/KOH pH 7.9, 150 mM KCl, 10 mM MgCl2, 0.075% Tween-80; 6.25-400 nM protein over immobilized biotinylated RNA; 20 mg/ml BSA block; settings: protein: commercial; label: 3' biotin
[8] = target: T2, hnRNP A1; assay: SPR imaging; 1:2 biphasic fit, primary Kd; low Rmax 68.35; SPRi (IBIS MX-96): 10 mM HEPES/KOH pH 7.9, 150 mM KCl, 10 mM MgCl2, 0.075% Tween-80; 6.25-400 nM protein over immobilized biotinylated RNA; 20 mg/ml BSA block; settings: protein: commercial; label: 3' biotin
[9] = target: TDP-43 (UniProt Q13148 1-414); assay: SPR imaging; pronounced increase vs wt; SPRi (IBIS MX-96): 10 mM HEPES/KOH pH 7.9, 150 mM KCl, 10 mM MgCl2, 0.075% Tween-80; 6.25-400 nM protein over immobilized biotinylated RNA; 20 mg/ml BSA block; settings: protein: commercial; label: 3' biotin
Chain of TDP-43 (Q13148 whole entry): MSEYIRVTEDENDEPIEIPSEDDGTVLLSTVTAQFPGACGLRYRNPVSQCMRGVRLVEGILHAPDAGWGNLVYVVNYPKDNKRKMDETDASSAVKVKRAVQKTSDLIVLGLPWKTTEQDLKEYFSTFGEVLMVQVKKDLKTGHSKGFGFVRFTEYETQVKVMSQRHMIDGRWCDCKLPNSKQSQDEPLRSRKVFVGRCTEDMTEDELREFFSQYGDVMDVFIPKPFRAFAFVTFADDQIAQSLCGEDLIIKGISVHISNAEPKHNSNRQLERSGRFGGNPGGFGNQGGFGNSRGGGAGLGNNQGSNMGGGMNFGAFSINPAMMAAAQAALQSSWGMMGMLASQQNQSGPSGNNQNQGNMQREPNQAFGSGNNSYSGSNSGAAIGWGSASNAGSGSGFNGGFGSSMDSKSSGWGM

T1 sequence (Q07955 whole entry): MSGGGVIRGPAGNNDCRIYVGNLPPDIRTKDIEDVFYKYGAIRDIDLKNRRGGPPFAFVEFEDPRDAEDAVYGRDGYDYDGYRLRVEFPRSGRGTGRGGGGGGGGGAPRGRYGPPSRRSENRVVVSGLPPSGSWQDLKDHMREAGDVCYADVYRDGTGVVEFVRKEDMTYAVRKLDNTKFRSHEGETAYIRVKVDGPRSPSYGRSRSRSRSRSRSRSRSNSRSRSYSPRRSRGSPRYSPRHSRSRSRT
T2 sequence (P09651 whole entry): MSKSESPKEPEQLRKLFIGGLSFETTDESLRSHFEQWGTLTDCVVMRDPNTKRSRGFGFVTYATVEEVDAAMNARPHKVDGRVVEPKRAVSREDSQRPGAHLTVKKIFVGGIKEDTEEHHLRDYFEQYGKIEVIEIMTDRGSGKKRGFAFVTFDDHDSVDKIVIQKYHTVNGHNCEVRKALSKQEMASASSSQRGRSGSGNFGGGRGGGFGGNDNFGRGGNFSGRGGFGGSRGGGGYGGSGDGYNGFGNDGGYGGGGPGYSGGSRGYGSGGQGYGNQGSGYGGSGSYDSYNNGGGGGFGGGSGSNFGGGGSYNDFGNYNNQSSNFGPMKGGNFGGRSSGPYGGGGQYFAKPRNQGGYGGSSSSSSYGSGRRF

**Q.** Which results are given for UGACCUCGAAACAGC (ssRNA) [ATMEX44 WT]?
**A.** Kd [1]: 60900 nM; Kd [2]: 3890 nM

**Q.** What does the source list for UGACCUCAAAACAGC (ssRNA) [ATMEX44 MUT]?
**A.** Kd [1]: 10500 nM; Kd [3]: 211000 nM

**Q.** Which Kd [1] does the source give for AGGGUUUCAGACAAA (ssRNA) [SMN1E7C] here?
**A.** 302 nM

**Q.** What about the Kd [2] of the same binder?
**A.** 733 nM

**Q.** With AGGGUUUUAGACAAA (ssRNA) [SMN2E7T] as the binder, how does the Kd [1] read?
**A.** 249000 nM

**Q.** And the Kd [4]?
**A.** 1040 nM

**Q.** GGGAGAUGGAAUCAA (ssRNA) [ATP7AEX20 WT] was tested. Which Kd [1] did it give?
**A.** 913 nM

**Q.** And the Kd [2]?
**A.** 886 nM

**Q.** How did the Kd [1] turn out when GGGAGAUAGAAUCAA (ssRNA) [ATP7AEX20 MUT] was run?
**A.** 5090 nM

**Q.** And the Kd [5]?
**A.** 989 nM

**Q.** Which Kd [1] does the source give for AUUUUUGGAAGAGUG (ssRNA) [NF1EX30 WT] here?
**A.** 168 nM

**Q.** What about the Kd [2] of the same binder?
**A.** 632 nM

**Q.** For AUUUUUGUAAGAGUG (ssRNA) [NF1EX30 MUT], which Kd [1] is on record?
**A.** 248000 nM

**Q.** What about the Kd [2] of the same binder?
**A.** 1080 nM

**Q.** Which results are given for UCCCAGUCAGAGGCG (ssRNA) [PTENEX6 WT]?
**A.** Kd [1]: 5800 nM; Kd [2]: 1160 nM

**Q.** Which Kd [1] does the source give for UCCCAGUUAGAGGCG (ssRNA) [PTENEX6 MUT] here?
**A.** 161000 nM

**Q.** What about the Kd [2] of the same binder?
**A.** 1450 nM

**Q.** What does the source list for CAUUCUUCGACUAGC (ssRNA) [MLH1EX17 WT]?
**A.** binding result [6]: no binding; Kd [7]: 32 nM

**Q.** Does CAUUCUUUGACUAGC (ssRNA) [MLH1EX17 MUT] bind [6]?
**A.** no binding

**Q.** What about the Kd [8] of the same binder?
**A.** 118 nM

**Q.** Does UGAUGUGUGUGAGUGUGUGUAAC (ssRNA) [ACADM exon 6 5'ss +7A>G 23 nt] bind [9]?
**A.** binds
